Measurements reported in paper PMC3604701.
Like-named read-outs stand apart in the source and are kept apart here. One block for each substance: values may come before it.

What was measured:
[1] = molecular target: CoREST (RCOR1) residues 286-482 (linker region + SANT2 domain) (UniProt Q9UKL0); assay: ITC; settings: pH 7.4; 25 °C; no added salt; not stated numerically; 50 mM sodium phosphate
[2] = molecular target: CoREST (RCOR1) residues 286-482 (linker region + SANT2 domain) (UniProt Q9UKL0); assay: SPR; settings: pH 7.4; no added salt; not stated numerically; 50 mM sodium phosphate
[3] = molecular target: CoREST (RCOR1) residues 286-482 (linker region + SANT2 domain) (UniProt Q9UKL0); assay: ITC; settings: pH 7.4, 25 °C, no added salt, not stated numerically
[4] = molecular target: CoREST (RCOR1) residues 286-482 (linker region + SANT2 domain) (UniProt Q9UKL0); assay: ITC; settings: pH 7.4, no added salt, not stated numerically, 50 mM sodium phosphate
[5] = molecular target: LSD1 (residues 151–852), lysine-specific demethylase 1 (human) (UniProt O60341); assay: ITC
[6] = molecular target: LSD1 (residues 151–852), lysine-specific demethylase 1 (human) (UniProt O60341); assay: ITC; remark: listed apart in the source
[7] = molecular target: LSD1 (residues 151–852), lysine-specific demethylase 1 (human) (UniProt O60341); assay: ITC; remark: listed apart in the source
[8] = molecular target: LSD1 (residues 151–852), lysine-specific demethylase 1 (human) (UniProt O60341); assay: ITC; remark: listed apart in the source
[9] = molecular target: LSD1 (residues 151–852), lysine-specific demethylase 1 (human) (UniProt O60341); assay: ITC; remark: listed apart in the source
[10] = molecular target: LSD1 (residues 151–852), lysine-specific demethylase 1 (human) (UniProt O60341); assay: ITC; remark: listed apart in the source
[11] = molecular target: LSD1 (residues 151–852), lysine-specific demethylase 1 (human) (UniProt O60341); assay: ITC; remark: listed apart in the source
[12] = molecular target: LSD1 (residues 151–852), lysine-specific demethylase 1 (human) (UniProt O60341); assay: ITC; remark: listed apart in the source
[13] = molecular target: LSD1 (residues 151–852), lysine-specific demethylase 1 (human) (UniProt O60341); assay: ITC; remark: listed apart in the source
[14] = molecular target: LSD1 (residues 151–852), lysine-specific demethylase 1 (human) (UniProt O60341); assay: ITC; remark: listed apart in the source
[15] = molecular target: LSD1 (residues 151–852), lysine-specific demethylase 1 (human) (UniProt O60341); assay: ITC; remark: listed apart in the source
[16] = molecular target: LSD1 (residues 151–852), lysine-specific demethylase 1 (human) (UniProt O60341); assay: ITC; remark: listed apart in the source
[17] = molecular target: LSD1 (residues 151–852), lysine-specific demethylase 1 (human) (UniProt O60341); assay: ITC; remark: listed apart in the source

Chain of UniProt Q9UKL0 (Q9UKL0 whole entry, the tested form may be a part): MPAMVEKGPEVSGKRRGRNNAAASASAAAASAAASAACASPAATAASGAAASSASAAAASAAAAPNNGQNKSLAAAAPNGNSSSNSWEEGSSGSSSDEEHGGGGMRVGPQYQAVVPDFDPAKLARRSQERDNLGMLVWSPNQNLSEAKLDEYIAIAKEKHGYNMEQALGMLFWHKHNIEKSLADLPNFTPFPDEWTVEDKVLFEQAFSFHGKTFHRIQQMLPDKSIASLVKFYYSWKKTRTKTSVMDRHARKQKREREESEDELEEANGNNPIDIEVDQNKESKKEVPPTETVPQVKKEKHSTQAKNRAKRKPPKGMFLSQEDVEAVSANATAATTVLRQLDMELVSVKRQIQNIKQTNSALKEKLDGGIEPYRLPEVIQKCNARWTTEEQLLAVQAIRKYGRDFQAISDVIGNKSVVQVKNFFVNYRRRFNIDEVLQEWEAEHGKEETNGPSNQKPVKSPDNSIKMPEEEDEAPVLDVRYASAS

ΔG [1]: -11.6 kcal/mol
ΔH [1]: -12.1 kcal/mol
koff [2]: 7.78e-05 s⁻¹
kon [2]: 56300 M⁻¹ s⁻¹
ΔG ([3]; 50 mM ACES): -10.1 kcal/mol
ΔHcal ([3]; 50 mM ACES): -12.6 kcal/mol
ΔG ([3]; 50 mM HEPES): -10.9 kcal/mol
ΔHcal ([3]; 50 mM HEPES): -15.2 kcal/mol
ΔG ([3]; 50 mM PIPES): -11.2 kcal/mol
ΔHcal ([3]; 50 mM PIPES): -17.4 kcal/mol
ΔG ([3]; 50 mM Tris): -10.8 kcal/mol
ΔHcal ([3]; 50 mM Tris): -10.9 kcal/mol
ΔG ([3]; 50 mM sodium phosphate): -10.6 kcal/mol
ΔHcal ([3]; 50 mM sodium phosphate): -19.5 kcal/mol
ΔG ([4]; 15 °C): -10.1 kcal/mol
Ka ([4]; 25 °C): 6.29e+07 M⁻¹
ΔG ([4]; 25 °C): -10.6 kcal/mol
ΔH ([4]; 25 °C): -21.3 kcal/mol
ΔG ([4]; 30 °C): -11.7 kcal/mol
ΔG ([4]; 35 °C): -11.4 kcal/mol
Substance: LSD1 (KDM1A, lysine-specific histone demethylase 1) residues 151-852

Kd [5]: 7.78 nM
dH [5]: -13.5 kcal/mol
stoichiometry N [5]: 0.96
Substance: linker region^293–380 of CoREST (domain or fragment)

Kd [6]: 4.18 nM
dH [6]: -8.56 kcal/mol
stoichiometry N [6]: 0.9
Kd [7]: 6.75 nM
dH [7]: -12.9 kcal/mol
stoichiometry N [7]: 1
Kd [8]: 3.7 nM
dH [8]: -16.1 kcal/mol
stoichiometry N [8]: 1.03
Kd [9]: 17.3 nM
dH (ΔHcal) [9]: -19.5 kcal/mol
stoichiometry N [9]: 1.11
Kd [10]: 11.7 nM
dH (ΔHcal) [10]: -15.2 kcal/mol
stoichiometry N [10]: 1.01
Kd [11]: 8.54 nM
dH (ΔHcal) [11]: -10.9 kcal/mol
stoichiometry N [11]: 0.92
Kd [12]: 7.66 nM
dH [12]: -15.6 kcal/mol
stoichiometry N [12]: 1
Kd [13]: 21.7 nM
dH [13]: -4.24 kcal/mol
stoichiometry N [13]: 0.99
Kd [14]: 5.84 nM
dH (ΔHcal) [14]: -17.4 kcal/mol
stoichiometry N [14]: 0.91
Kd [15]: 3.18 nM
dH [15]: -12.1 kcal/mol
stoichiometry N [15]: 1.01
Kd [16]: 21.2 nM
dH (ΔHcal) [16]: -12.6 kcal/mol
stoichiometry N [16]: 0.93
Ka [5]: 6.29e+07 M⁻¹
Kd [5]: 15.9 nM
dH [5]: -21.3 kcal/mol
stoichiometry N [5]: 1.14
Kd [17]: 8.03 nM
dH [17]: -20.2 kcal/mol
stoichiometry N [17]: 0.97
Substance: CoREST^286–482 (linker region and SANT2 domain) (domain or fragment)
